Legend:
[1] = target: 14-3-3-FC complex (tobacco 14-3-3c saturated with fusicoccin) (Nicotiana tabacum (tobacco)) (UniProt P93343); assay: isothermal titration calorimetry, […]
[2] = target: Tobacco 14-3-3c (Gene bank AAC49892, amino acids 1-260 with an N-terminal His-tag) (Nicotiana tabacum (tobacco)) (UniProt P93343); assay: ITC; peptide into unliganded 14-3-3c
[3] = target: Tobacco 14-3-3c (Gene bank AAC49892, amino acids 1-260 with an N-terminal His-tag) (Nicotiana tabacum (tobacco)) (UniProt P93343); assay: ITC; phosphopeptide (0.5 mM) titrated into 14-3-3c (0.05 mM), 25 mM HEPES pH 6.5, 35 °C, single-site fit; peptide to unliganded 14-3-3c, no fusicoccin; ITC, pH 6.5, 35 C
[4] = target: Tobacco 14-3-3c (Gene bank AAC49892, amino acids 1-260 with an N-terminal His-tag) (Nicotiana tabacum (tobacco)) (UniProt P93343); assay: isothermal titration calorimetry, peptide titrated into 14-3-3c alone, 35 °C
[5] = target: 14-3-3-FC complex (tobacco 14-3-3c saturated with fusicoccin) (Nicotiana tabacum (tobacco)) (UniProt P93343); assay: ITC; peptide into the 14-3-3-FC complex
[6] = target: 14-3-3-FC complex (tobacco 14-3-3c saturated with fusicoccin) (Nicotiana tabacum (tobacco)) (UniProt P93343)
[7] = target: the molecule itself; assay: X-ray crystal structure (homodimer)
Protocol: Tobacco 14-3-3c (Gene bank AAC49892, amino acids 1-260 with an N-terminal His-tag) was expressed recombinantly in E.coli and purified via standard procedures. Fusicoccin was purchased from Sigma. Phosphopeptides were synthesized by Biosyntan (Berlin). […] They were soaked with ligands for 4 hours (fusicoccin) or 20 minutes (peptide) in precipitant solution supplemented to 30% PEG 400 and cryoprotectant (precipitant solution supplemented to 35% PEG 400, 8% Isopropanol) prior to freezing in liquid N₂.

Molecule: phosphopeptide Gln-Ser-Tyr-pThr-Val (QSYpTV), C-terminal end of PMA2, a H+-ATPase isoform from N. plumbaginifolia
- Kd [1]: 27 nM
- ΔG [1]: -11.4 kcal/mol
- -TΔS [2]: 1.7 kcal/mol
- ΔH [2]: -10 kcal/mol
- Kd [3]: 2500 nM
- ΔG [4]: -8.3 kcal/mol
- -TΔS [5]: 0.4 kcal/mol
- ΔH [5]: -11.8 kcal/mol
- fold increase of binding affinity by fusicoccin [6]: 93 fold

B1: Tobacco 14-3-3c (Gene bank AAC49892, amino acids 1-260 with an N-terminal His-tag) (other)
chain: MAVAPTAREENVYMAKLAEQAERYEEMVEFMEKVSNSLGSEELTVEERNLLSVAYKNVIGARRASWRIISSIEQKEESRGNEEHVNSIREYRSKIENELSKICDGILKLLDAKLIPSAASGDSKVFYLKMKGDYHRYLAEFKTGAERKEAAESTLTAYKAAQDIATTELAPTHPIRLGLALNFSVFYYEILNSPDRACNLAKQAFDEAIAELDTLGEESYKDSTLIMQLLRDNLTLWTSDMQDDGADEIKEDPKPDEAKN
notes: Expressed in E. coli; one monomer in the asymmetric unit; also called plant 14-3-3c; Nicotiana tabacum 14-3-3 isoform c; not shown: N-terminal His-tag
- binding result [7]: binds

Source: patent US20070287629A1 (MAX PLANCK GESELLSCHAFT ZUR FOERDERUNG DER WISSENSCHAFTEN E …, published 2007)
